Data from the supplement of paper PMC10567573.

B1: MFF (parent)
chain: DDLTVVDAASLRRQIIKLNRRLQL

Variants of: B1
Assay: protein stability index of a GFP-peptide fusion (GPS, HEK-293T) (PSI 1-6); higher = more stable
Conditions: c terminus: a fixed tail appended
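Further: lentivirally expressed fusions sorted by FACS into six bins by GFP to DsRed ratio, PSI derived from sequencing read proportions per bin multiplied by bin number.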

Protein stability index: each site, then its substitutions
Q23: E 2.5 | G 2.5 | R 2.23 | H 1.5 | F 2.32 | K 2.38 | M 2.43 | A 1.57 | D 2.33 | T 2.08 | N 2.31 | S 2.63 | C 1.91 | P 2.62 | L 2.15 | I 2.14 | V 1.34
L24: K 2.99 | C 2.06 | E 2.23 | I 2.32 | A 2.29 | W 1.94 | Y 1.72 | H 2.21 | R 2.74 | Q 2.89 | M 1.71 | V 3.01 | S 2.42 | P 2.89 | F 1.8 | N 2.35 | T 2.38 | D 2.77 | G 2.56
N19: F 2.16 | I 2.02 | S 2.38 | R 1.76 | T 2.68 | C 3.04 | V 2.25 | W 2.86 | Y 1.85 | D 3.79 | M 1.74 | H 1.75 | P 2.33 | K 1.94 | Q 2.01 | E 3
L22: M 3.02 | Q 3.21 | F 2.36 | N 3.78 | T 2.62 | K 3.74 | C 1.91 | S 3.6 | V 2.61 | R 3.01 | W 2.4 | P 3.52 | D 3.95 | G 3.13 | A 3.25 | I 1.99 | Y 2.7 | E 2.77 | H 2.95
R21: N 2.46 | T 1.91 | A 1.57 | H 1.6 | V 1.79 | D 1.73 | W 1.91 | G 1.84 | S 2.98 | F 2.33 | E 1.46 | L 1.33 | Q 1.84 | M 1.14 | P 2.99 | Y 1.94 | C 1.95 | K 1.88
R20: H 2.26 | A 1.9 | M 2.21 | T 2.76 | K 1.02 | I 2.07 | G 2.04 | F 2.43 | L 2.37 | N 2.4 | Q 1.85 | P 2.79 | Y 1.74 | W 1.37 | D 2.82 | S 1.96 | E 2.02 | C 2.06 | V 1.9
